{
  "source": "the supplement of paper PMC7125110",
  "parents": {"B1": {"name": "glmS ribozyme (parent)", "chain": "AUAAAAGCGCCAGAACUACAGAAAUGUAGUUGACGAGGAGGAGGUUUAUCGAAUUUUCGGCGGAUGCCUCCAAA"}},
  "conditions_in_all_cases": "with glucosamine-6-phosphate",
  "key": {"glucosamine-6-phosphate [1]": {"variants_of": "B1", "assay": "kcat; higher = faster cleavage; RNA array", "outline": "(§1)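 On sequenced MiSeq chips, barcoded ribozyme variants were made in situ by E. coli RNA polymerase and followed at 37 °C through a hybridised Cy3 probe. Glucosamine-6-phosphate was flowed in at 40 μM to 10 mM in HEPES/KCl/Mg(OAc)2 buffer. Exponential fits to normalised per-tile medians gave kobs, and weighted Michaelis–Menten fits gave kcat and KM.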"}, "glucosamine-6-phosphate [2]": {"variants_of": "B1", "assay": "self-cleavage kobs at 40 uM GlcN6P; higher = faster cleavage; RNA array", "outline": "as §1"}, "glucosamine-6-phosphate [3]": {"variants_of": "B1", "assay": "self-cleavage kobs at 640 uM GlcN6P; higher = faster cleavage; RNA array", "outline": "as §1"}, "glucosamine-6-phosphate [4]": {"variants_of": "B1", "assay": "self-cleavage kobs at 10000 uM GlcN6P; higher = faster cleavage; RNA array", "outline": "as §1"}, "glucosamine-6-phosphate [5]": {"variants_of": "B1", "assay": "self-cleavage kobs at 160 uM GlcN6P; higher = faster cleavage; RNA array", "outline": "as §1"}, "glucosamine-6-phosphate [6]": {"variants_of": "B1", "assay": "KM; higher = weaker cofactor use; RNA array", "outline": "as §1"}, "glucosamine-6-phosphate [7]": {"variants_of": "B1", "assay": "self-cleavage kobs at 2500 uM GlcN6P; higher = faster cleavage; RNA array", "outline": "as §1"}},
  "note": "± gives the standard error. For some of these results: Variants at the floor of the assay were thinned out.",
  "data": [
    {"variant": "G62A C70A", "values": [
      {"measurement": "kcat", "setting": "glucosamine-6-phosphate [1]", "value": "4.15e-05 ± 2e-05", "unit": "s⁻¹"},
      {"measurement": "self-cleavage kobs at 40 uM GlcN6P", "setting": "glucosamine-6-phosphate [2]", "value": "< 1e-05", "unit": "s⁻¹"},
      {"measurement": "self-cleavage kobs at 640 uM GlcN6P", "setting": "glucosamine-6-phosphate [3]", "value": "7.27e-05 ± 2.4e-05", "unit": "s⁻¹"}
    ]},
    {"variant": "G62A C70G", "values": [
      {"measurement": "kcat", "setting": "glucosamine-6-phosphate [1]", "value": "4.83e-05 ± 2.2e-05", "unit": "s⁻¹"},
      {"measurement": "self-cleavage kobs at 40 uM GlcN6P", "setting": "glucosamine-6-phosphate [2]", "value": "< 1e-05", "unit": "s⁻¹"},
      {"measurement": "self-cleavage kobs at 640 uM GlcN6P", "setting": "glucosamine-6-phosphate [3]", "value": "4.71e-05 ± 1.5e-05", "unit": "s⁻¹"},
      {"measurement": "self-cleavage kobs at 10000 uM GlcN6P", "setting": "glucosamine-6-phosphate [4]", "value": "< 1e-05", "unit": "s⁻¹"}
    ]},
    {"variant": "G60C C68G", "values": [
      {"measurement": "kcat", "setting": "glucosamine-6-phosphate [1]", "value": "1.2e-05 ± 1.5e-06", "unit": "s⁻¹"}
    ]},
    {"variant": "G60C C68U", "values": [
      {"measurement": "kcat", "setting": "glucosamine-6-phosphate [1]", "value": "< 1e-05", "unit": "s⁻¹"},
      {"measurement": "self-cleavage kobs at 160 uM GlcN6P", "setting": "glucosamine-6-phosphate [5]", "value": "< 1e-05", "unit": "s⁻¹"}
    ]},
    {"variant": "G59C U69A", "values": [
      {"measurement": "kcat", "setting": "glucosamine-6-phosphate [1]", "value": "2.45e-05 ± 5.3e-06", "unit": "s⁻¹"}
    ]},
    {"variant": "G59C U69G", "values": [
      {"measurement": "kcat", "setting": "glucosamine-6-phosphate [1]", "value": "1.85e-05 ± 5.2e-06", "unit": "s⁻¹"},
      {"measurement": "self-cleavage kobs at 40 uM GlcN6P", "setting": "glucosamine-6-phosphate [2]", "value": "< 1e-05", "unit": "s⁻¹"}
    ]},
    {"variant": "U57A C71G", "values": [
      {"measurement": "kcat", "setting": "glucosamine-6-phosphate [1]", "value": "5.3e-05 ± 1.6e-05", "unit": "s⁻¹"}
    ]},
    {"variant": "G60A U69G", "values": [
      {"measurement": "kcat", "setting": "glucosamine-6-phosphate [1]", "value": "1.18e-05 ± 5e-06", "unit": "s⁻¹"}
    ]},
    {"variant": "C58G C70U", "values": [
      {"measurement": "kcat", "setting": "glucosamine-6-phosphate [1]", "value": "5.2e-05 ± 3.9e-06", "unit": "s⁻¹"},
      {"measurement": "KM", "setting": "glucosamine-6-phosphate [6]", "value": "230 ± 110", "unit": "µM"},
      {"measurement": "self-cleavage kobs at 160 uM GlcN6P", "setting": "glucosamine-6-phosphate [5]", "value": "2.43e-05 ± 1.1e-05", "unit": "s⁻¹"},
      {"measurement": "self-cleavage kobs at 640 uM GlcN6P", "setting": "glucosamine-6-phosphate [3]", "value": "3.07e-05 ± 1.1e-05", "unit": "s⁻¹"},
      {"measurement": "self-cleavage kobs at 2500 uM GlcN6P", "setting": "glucosamine-6-phosphate [7]", "value": "5.21e-05 ± 7e-06", "unit": "s⁻¹"},
      {"measurement": "self-cleavage kobs at 10000 uM GlcN6P", "setting": "glucosamine-6-phosphate [4]", "value": "4.8e-05 ± 7.6e-06", "unit": "s⁻¹"}
    ]},
    {"variant": "C58G C70G", "values": [
      {"measurement": "kcat", "setting": "glucosamine-6-phosphate [1]", "value": "5.46e-05 ± 1.6e-05", "unit": "s⁻¹"},
      {"measurement": "self-cleavage kobs at 160 uM GlcN6P", "setting": "glucosamine-6-phosphate [5]", "value": "4.69e-05 ± 1.8e-05", "unit": "s⁻¹"},
      {"measurement": "self-cleavage kobs at 640 uM GlcN6P", "setting": "glucosamine-6-phosphate [3]", "value": "7.73e-05 ± 2e-05", "unit": "s⁻¹"},
      {"measurement": "self-cleavage kobs at 2500 uM GlcN6P", "setting": "glucosamine-6-phosphate [7]", "value": "5.92e-05 ± 1.4e-05", "unit": "s⁻¹"}
    ]},
    {"variant": "U57A U69A", "values": [
      {"measurement": "kcat", "setting": "glucosamine-6-phosphate [1]", "value": "3.14e-05 ± 6.3e-06", "unit": "s⁻¹"},
      {"measurement": "self-cleavage kobs at 2500 uM GlcN6P", "setting": "glucosamine-6-phosphate [7]", "value": "3.75e-05 ± 1.1e-05", "unit": "s⁻¹"}
    ]},
    {"variant": "U57A U69C", "values": [
      {"measurement": "kcat", "setting": "glucosamine-6-phosphate [1]", "value": "0.000113 ± 1.4e-05", "unit": "s⁻¹"},
      {"measurement": "KM", "setting": "glucosamine-6-phosphate [6]", "value": "1640 ± 640", "unit": "µM"},
      {"measurement": "self-cleavage kobs at 2500 uM GlcN6P", "setting": "glucosamine-6-phosphate [7]", "value": "7.81e-05 ± 1.8e-05", "unit": "s⁻¹"},
      {"measurement": "self-cleavage kobs at 10000 uM GlcN6P", "setting": "glucosamine-6-phosphate [4]", "value": "9.38e-05 ± 1.8e-05", "unit": "s⁻¹"}
    ]},
    {"variant": "C58A C67G", "values": [
      {"measurement": "kcat", "setting": "glucosamine-6-phosphate [1]", "value": "9.61e-05 ± 2.2e-05", "unit": "s⁻¹"},
      {"measurement": "self-cleavage kobs at 160 uM GlcN6P", "setting": "glucosamine-6-phosphate [5]", "value": "3.39e-05 ± 1.3e-05", "unit": "s⁻¹"},
      {"measurement": "self-cleavage kobs at 640 uM GlcN6P", "setting": "glucosamine-6-phosphate [3]", "value": "6.98e-05 ± 9.8e-06", "unit": "s⁻¹"},
      {"measurement": "self-cleavage kobs at 2500 uM GlcN6P", "setting": "glucosamine-6-phosphate [7]", "value": "6.08e-05 ± 1e-05", "unit": "s⁻¹"},
      {"measurement": "self-cleavage kobs at 10000 uM GlcN6P", "setting": "glucosamine-6-phosphate [4]", "value": "0.000124 ± 1.3e-05", "unit": "s⁻¹"}
    ]},
    {"variant": "G63C C71G", "values": [
      {"measurement": "kcat", "setting": "glucosamine-6-phosphate [1]", "value": "< 1e-05", "unit": "s⁻¹"},
      {"measurement": "KM", "setting": "glucosamine-6-phosphate [6]", "value": "222 ± 79", "unit": "µM"},
      {"measurement": "self-cleavage kobs at 40 uM GlcN6P", "setting": "glucosamine-6-phosphate [2]", "value": "< 1e-05", "unit": "s⁻¹"},
      {"measurement": "self-cleavage kobs at 160 uM GlcN6P", "setting": "glucosamine-6-phosphate [5]", "value": "< 1e-05", "unit": "s⁻¹"},
      {"measurement": "self-cleavage kobs at 640 uM GlcN6P", "setting": "glucosamine-6-phosphate [3]", "value": "< 1e-05", "unit": "s⁻¹"},
      {"measurement": "self-cleavage kobs at 10000 uM GlcN6P", "setting": "glucosamine-6-phosphate [4]", "value": "< 1e-05", "unit": "s⁻¹"}
    ]},
    {"variant": "C61U G66A", "values": [
      {"measurement": "kcat", "setting": "glucosamine-6-phosphate [1]", "value": "< 1e-05", "unit": "s⁻¹"},
      {"measurement": "self-cleavage kobs at 640 uM GlcN6P", "setting": "glucosamine-6-phosphate [3]", "value": "< 1e-05", "unit": "s⁻¹"}
    ]},
    {"variant": "G59A C71A", "values": [
      {"measurement": "kcat", "setting": "glucosamine-6-phosphate [1]", "value": "< 1e-05", "unit": "s⁻¹"},
      {"measurement": "self-cleavage kobs at 40 uM GlcN6P", "setting": "glucosamine-6-phosphate [2]", "value": "< 1e-05", "unit": "s⁻¹"}
    ]},
    {"variant": "G59A C71G", "values": [
      {"measurement": "kcat", "setting": "glucosamine-6-phosphate [1]", "value": "< 1e-05", "unit": "s⁻¹"},
      {"measurement": "self-cleavage kobs at 40 uM GlcN6P", "setting": "glucosamine-6-phosphate [2]", "value": "< 1e-05", "unit": "s⁻¹"}
    ]},
    {"variant": "C58G C67A", "values": [
      {"measurement": "kcat", "setting": "glucosamine-6-phosphate [1]", "value": "4.68e-05 ± 7.6e-06", "unit": "s⁻¹"},
      {"measurement": "self-cleavage kobs at 640 uM GlcN6P", "setting": "glucosamine-6-phosphate [3]", "value": "6.09e-05 ± 1.3e-05", "unit": "s⁻¹"},
      {"measurement": "self-cleavage kobs at 2500 uM GlcN6P", "setting": "glucosamine-6-phosphate [7]", "value": "4.7e-05 ± 1.4e-05", "unit": "s⁻¹"},
      {"measurement": "self-cleavage kobs at 10000 uM GlcN6P", "setting": "glucosamine-6-phosphate [4]", "value": "3.78e-05 ± 1e-05", "unit": "s⁻¹"}
    ]},
    {"variant": "C58A A64G", "values": [
      {"measurement": "kcat", "setting": "glucosamine-6-phosphate [1]", "value": "0.000405 ± 6.2e-05", "unit": "s⁻¹"},
      {"measurement": "KM", "setting": "glucosamine-6-phosphate [6]", "value": "1920 ± 510", "unit": "µM"},
      {"measurement": "self-cleavage kobs at 160 uM GlcN6P", "setting": "glucosamine-6-phosphate [5]", "value": "3.91e-05 ± 1.1e-05", "unit": "s⁻¹"},
      {"measurement": "self-cleavage kobs at 640 uM GlcN6P", "setting": "glucosamine-6-phosphate [3]", "value": "0.0001 ± 1.5e-05", "unit": "s⁻¹"},
      {"measurement": "self-cleavage kobs at 2500 uM GlcN6P", "setting": "glucosamine-6-phosphate [7]", "value": "0.000214 ± 2.8e-05", "unit": "s⁻¹"},
      {"measurement": "self-cleavage kobs at 10000 uM GlcN6P", "setting": "glucosamine-6-phosphate [4]", "value": "0.000399 ± 8.1e-05", "unit": "s⁻¹"}
    ]},
    {"variant": "G59A C67G", "values": [
      {"measurement": "kcat", "setting": "glucosamine-6-phosphate [1]", "value": "1.27e-05 ± 2.9e-06", "unit": "s⁻¹"}
    ]},
    {"variant": "G62C C70A", "values": [
      {"measurement": "kcat", "setting": "glucosamine-6-phosphate [1]", "value": "1.23e-05 ± 3.2e-06", "unit": "s⁻¹"}
    ]},
    {"variant": "C61U A64G", "values": [
      {"measurement": "kcat", "setting": "glucosamine-6-phosphate [1]", "value": "2.3e-05 ± 9.4e-07", "unit": "s⁻¹"},
      {"measurement": "KM", "setting": "glucosamine-6-phosphate [6]", "value": "1200 ± 250", "unit": "µM"},
      {"measurement": "self-cleavage kobs at 40 uM GlcN6P", "setting": "glucosamine-6-phosphate [2]", "value": "< 1e-05", "unit": "s⁻¹"},
      {"measurement": "self-cleavage kobs at 160 uM GlcN6P", "setting": "glucosamine-6-phosphate [5]", "value": "< 1e-05", "unit": "s⁻¹"}
    ]}
  ]
}
